Laboratory results from the supplement of paper PMC12764529.
± gives the half width of the 95% confidence interval.

Key:
[1] = folding stability dG unfold from trypsin proteolysis; higher = more stable
Outline: (§1)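 K50 was inferred by Bayesian fitting of sequencing counts obtained after protease digestion of designed mini-proteins. Unfolding free energy was derived by comparison with a sequence-predicted unfolded-state K50 and a shared folded-state K50, for each protease or both combined. The mini-proteins were under 80 residues, had no cysteine, were carried in a PA-tagged cDNA display construct, and were kept only if AlphaFold2 dimer inter-PAE exceeded 15.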

[2] = folding stability dG unfold from chymotrypsin proteolysis; higher = more stable
Outline: as §1

[3] = folding stability dG unfold (combined trypsin and chymotrypsin); higher = more stable
Outline: as §1

| Sequence | folding stability dG unfold [1] | folding stability dG unfold [2] | folding stability dG unfold [3] |
| --- | --- | --- | --- |
| SMVKIYAAPNVPPEQREAIERLVKRILENPDIPIDPETIGKLIKEEAGNPELTIDRIEILPLVPPGVAEKSA [r9_620_TrMRF] | 0.79 ± 0.064 kcal/mol | 0.896 ± 0.082 kcal/mol | 0.794 ± 0.099 kcal/mol |
| SMVLELPAKDLKLEVNEDGTLKLTIKLENGKKVTFTFPAGDKITKIEVLSPDKVKIIFEKKPLKDLKTFLSA [r9_501_TrMRF] | 1.1 ± 0.047 kcal/mol | 1.76 ± 0.074 kcal/mol | 1.61 ± 0.19 kcal/mol |
| SMVTVETRPEEVLPDAEGRLRRVTVVITFPDGKTLTVDMEFPPDVSDEEVEERLRALVEELGVESIELLGSA [r9_1203_JUSTAS] | 3.7 ± 0.11 kcal/mol | 1.81 ± 0.086 kcal/mol | 2.99 ± 0.17 kcal/mol |
| SMVTVTFPDASPEEIRAAIEAHPDRDVVLVTAPGKEEELEKILKEYDYTKEEKALPDGRKVRVMKVKVPRSA [r9_1138_JUSTAS] | 0.784 ± 0.14 kcal/mol | 0.176 ± 0.42 kcal/mol | 0.462 ± 0.25 kcal/mol |
| SMYKVKVKLLITNPKTGEKLEVEVEATLEEAEKLAEELEKKYPELNWKVEIKEIEIYPIPKPVLVKPGEASA [r9_14_TrMRF] | 2.45 ± 0.34 kcal/mol | 3.51 ± 0.096 kcal/mol | 3.46 ± 0.22 kcal/mol |
| SNFPPGQQIKFTFRLPDNGMKIKIEVHVHPDGYVQVRMERENPDNGKRVKITFYVPGPTLDEILDFIEQFSA [r9_618_TrROS] | 2.97 ± 0.09 kcal/mol | 3.852 ± 0.038 kcal/mol | 3.52 ± 0.08 kcal/mol |
| SNIEIEPYQPGEPREYEIPPGKLKITFYQDPGPMYIRVKDPGNGEPVEIPIPMERGDWDNAAKKILKAIKSA [r9_982_TrROS] | 0.81 ± 0.14 kcal/mol | 0.454 ± 0.27 kcal/mol | 0.802 ± 0.32 kcal/mol |
| SNIRIEVDPPNGVIRVTYTFPGDSLSDIKDEIVEYIQKLGFPIEVDIDKIEPMNNYWRVTAYIKIPPGAISA [r9_347_TrROS] | 3.21 ± 0.095 kcal/mol | 4.56 ± 0.056 kcal/mol | 4.18 ± 0.086 kcal/mol |
| SNNNEVTIEIMIMFKYPRPEYDPDNGKPEPEPVYFMFPIKIEGKADDPEDAKRAADNILDRFLKDPDYIMSA [r9_77_TrROS] | 1.79 ± 0.12 kcal/mol | 2.95 ± 0.045 kcal/mol | 2.6 ± 0.17 kcal/mol |
| SNPDDQKKAKPIEIEIEIDFKPERERDPDGKERPRFEFDIEIKIPPGAPLDMITIYIRFDDWPFMITIPASA [r9_488_TrROS] | 1.8 ± 0.075 kcal/mol | 3.42 ± 0.15 kcal/mol | 2.95 ± 0.28 kcal/mol |
| SNPNIKVTTTSETLPDNTLRTTETNPDTGTVTETLVPTDGNGPKTVKTTTTTTDTSTGKKTITTTTTTIPVS [r1_45_JUSTAS] | -1.33 ± 0.26 kcal/mol | 0.99 ± 0.02 kcal/mol | 0.529 ± 0.085 kcal/mol |
| SPAEINIEFDPEEGRLRIKVKLEWPGGDPEPIATHEVPIGNNRYITYPIYKHPDGPWRIEDIDIMPPDELSA [r9_780_TrROS] | 0.283 ± 0.14 kcal/mol | 1 ± 0.15 kcal/mol | 0.727 ± 0.35 kcal/mol |
| SPAKPVPIEITMHGDGMFEIRLPNGKEISFPNPDGQWAQATVDPDEGTIEIEMYNNGKRHTFEIPLPPNDSA [r9_226_TrROS] | 0.153 ± 0.14 kcal/mol | 0.499 ± 0.17 kcal/mol | 0.459 ± 0.16 kcal/mol |
| SPDPGMKPRPMYMIRIKIEVTTPDGKKRGKHDFIIQSPEEAKEFIEELAENRGMKIKKIDIDIYPMPWLKSA [r9_1226_TrROS] | 1.5 ± 0.044 kcal/mol | 2.56 ± 0.061 kcal/mol | 2.18 ± 0.1 kcal/mol |
| SPDVKILDIERHPDDGSISIKLKFPDGWPVTLHYNPDGSHTIHNPGNGAPIQIKYDGNQLKIELPDNLKFSA [r9_233_TrROS] | 0.478 ± 0.023 kcal/mol | 0.868 ± 0.086 kcal/mol | 0.729 ± 0.083 kcal/mol |
| SPEAVAEALRKLGFDLDIERIDVEPLPDGTYRVTVTRGDKPVFTVTVTAPPPPPPVFVVRDADGTERLVRSA [r9_442_TrMRF] | 0.704 ± 0.054 kcal/mol | 2.4 ± 0.03 kcal/mol | 1.98 ± 0.036 kcal/mol |
| SPEKEIKVKYELPEPGSGPVKVEATFTINPKTGEVKMPVTLTRPGSSSQVNLPEELLKELKNKVLEELGKSA [r9_1136_JUSTAS] | -0.621 ± 0.29 kcal/mol | 0.795 ± 0.089 kcal/mol | 0.442 ± 0.083 kcal/mol |
| SPEVPPGKTLEREFKGVPVRLTREEESGTIHITVYPPTDPSKPLYEAEFSPDELRPIPLPPEVAAALAAESA [r9_1051_JUSTAS] | -0.681 ± 0.24 kcal/mol | 0.0553 ± 0.1 kcal/mol | -0.13 ± 0.16 kcal/mol |
| SPFRLKIEIDEVGPAGQEIRVKLEIWSDNKPIEMEHTIKVPNGRLYRIRMNIYMPPDGNFQLNLDVYPLDSA [r9_255_TrROS] | 4.29 ± 0.23 kcal/mol | 6.34 ± 0.37 kcal/mol | > 6 kcal/mol |
| SPIYVFIEKTNNKRTIMIQNPENGWWVEIKFNGGEITFPIDSVEDFLDELKDLGWPIEITKIRPLPPGQLSA [r9_1102_TrROS] | 2.79 ± 0.17 kcal/mol | 3.32 ± 0.12 kcal/mol | 3.16 ± 0.16 kcal/mol |
| SPKEPQKVRIRIRNPENGKPIWEFDIWFPPDGGVKVKIEHPNEKHEYPMPADEALDFLENHPFKIEEIEVSA [r9_470_TrROS] | 0.739 ± 0.18 kcal/mol | 0.301 ± 0.2 kcal/mol | 0.567 ± 0.33 kcal/mol |
